# According to patent publication US10280205B2, “Method for treating cancer with an activated T lymphocyte that selectively recognizes a cancer cell consisting of specific peptide” (immatics biotechnologies GmbH, priority 2015, dated 2019):
# Target: HLA-A*02:01 (Homo sapiens, UniProt P04439, D140Y/D185E/D98H/E176V/E277Q/G131W/G231S/I119V/I121R/I166T/I218V/L300P/L318F/N151K/N90K/P208A/P217A/Q86G/Q94H/R138H/R169H/T345S)
# Assay: MHC binding assay: UV-ligand exchange with beta2m ELISA (exchange yield)
# Details: binding to HLA-A*02:01, β2m ELISA
# From the text: Candidate peptides for T cell based therapies according to the present invention were further tested for their MHC binding capacity (affinity). The individual peptide-MHC complexes were produced by UV-ligand exchange, where a UV-sensitive peptide is cleaved upon UV-irradiation, and exchanged with the peptide of interest as analyzed. Only peptide candidates that can effectively bind and stabilize the peptide-receptive MHC molecules prevent dissociation of the MHC complexes. To determine the yield of the exchange reaction, an ELISA was performed based on the detection of the light chain (β2m) of stabilized MHC complexes. The assay was performed as generally described in Rodenko et al. (Rodenko et al., 2006).
# 96 well MAXISorp plates (NUNC) were coated over night with 2 ug/ml streptavidin in PBS at room temperature, washed 4× and blocked for 1 h at 37° C. in 2% BSA containing blocking buffer. […] Peptide-MHC monomers of the UV-exchange reaction were diluted 100 fold in blocking buffer. Samples were incubated for 1h at 37° C., washed four times, incubated with 2 ug/ml HRP conjugated anti-β2m for 1h at 37° C., washed again and detected with TMB solution that is stopped with […]. Absorption was measured at 450 nm. Candidate peptides that show a high exchange yield (preferably higher than 50%, most preferred higher than 75%) are generally preferred for a generation and production of antibodies or fragments thereof, and/or T cell receptors or fragments thereof, as they show sufficient avidity to the MHC molecules and prevent dissociation of the MHC complexes.
row,Substance,"Peptide exchange (MHC class I binding score, peptide exchange yield)"
1,355 (SIQQSIERLLV; listed as Homo sapiens) [compound 355],“++” (≥20% = ++)
2,313 (VLFDDELLMV; listed as Homo sapiens) [compound 313],“+++” (≥50 = +++)
3,51 (LLPDLEFYV; listed as Homo sapiens) [compound 51],“++++” (≥75% = ++++)
4,361 (ALYELEGTTV; listed as Homo sapiens) [compound 361],“+++” (≥50 = +++)
5,208 (KISPVTFSV; listed as Homo sapiens) [compound 208],“+++” (≥50 = +++)
6,593 (GLPRFGIEMV; listed as Homo sapiens) [compound 593],“+++” (≥50 = +++)
7,451 (LLLLDTVTMQV; listed as Homo sapiens) [compound 451],“++” (≥20% = ++)
8,574 (YLLQEPPRTV; listed as Homo sapiens) [compound 574],“++” (≥20% = ++)
9,387 (ALFQATAEV; listed as Homo sapiens) [compound 387],“++++” (≥75% = ++++)
10,342 (HIYDKVMTV; listed as Homo sapiens) [compound 342],“+++” (≥50 = +++)
11,31 (YLAPELFVNV; listed as Homo sapiens) [compound 31],“++” (≥20% = ++)
12,335 (YSLSSVVTV; listed as Homo sapiens) [compound 335],“+++” (≥50 = +++)
13,74 (ALLDPEVLSIFV; listed as Homo sapiens) [compound 74],“+++” (≥50 = +++)
14,505 (SLAPGDVVRQV; listed as Homo sapiens) [compound 505],“++” (≥20% = ++)
15,363 (KVLDVSDLESV; listed as Homo sapiens) [compound 363],“++” (≥20% = ++)
16,541 (SMLEPVPEL; listed as Homo sapiens) [compound 541],“+++” (≥50 = +++)
17,167 (KVLEVTEEFGV; listed as Homo sapiens) [compound 167],“+++” (≥50 = +++)
18,266 (KITDTLIHL; listed as Homo sapiens) [compound 266],“+++” (≥50 = +++)
19,332 (YLISELEAA; listed as Homo sapiens) [compound 332],“+++” (≥50 = +++)

row,Substance,"Peptide exchange (MHC class I binding score, peptide exchange yield)"
1,590 (SLIEKLWQT; listed as Homo sapiens) [compound 590],“++” (≥20% = ++)
2,257 (SIFSAFLSV; listed as Homo sapiens) [compound 257],“+++” (≥50 = +++)
3,10 (FLATFPLAAV; listed as Homo sapiens) [compound 10],“++++” (≥75% = ++++)
4,206 (VLQEGKLQKLAQL; listed as Homo sapiens) [compound 206],“+++” (≥50 = +++)
5,189 (ALQRKLPYV; listed as Homo sapiens) [compound 189],“+++” (≥50 = +++)
6,374 (FLLQQHLISA; listed as Homo sapiens) [compound 374],“++” (≥20% = ++)
7,378 (ALGYFVPYV; listed as Homo sapiens) [compound 378],“+++” (≥50 = +++)
8,148 (ALNPEIVSV; listed as Homo sapiens) [compound 148],“++” (≥20% = ++)
9,193 (QLLDADGFLNV; listed as Homo sapiens) [compound 193],“+++” (≥50 = +++)
10,285 (QLLHVGVTV; listed as Homo sapiens) [compound 285],“+++” (≥50 = +++)
11,316 (ILLERLWYV; listed as Homo sapiens) [compound 316],“+++” (≥50 = +++)
12,379 (IMEGTLTRV; listed as Homo sapiens) [compound 379],“++” (≥20% = ++)
13,452 (ILLEHGADPNL; listed as Homo sapiens) [compound 452],“+++” (≥50 = +++)
14,205 (SLYPGTETMGL; listed as Homo sapiens) [compound 205],“+++” (≥50 = +++)
15,576 (ILLNNSGQIKL; listed as Homo sapiens) [compound 576],“++++” (≥75% = ++++)
16,314 (ALIAEGIALV; listed as Homo sapiens) [compound 314],“+++” (≥50 = +++)
17,107 (FLQPVDDTQHL; listed as Homo sapiens) [compound 107],“+++” (≥50 = +++)
18,202 (ALLDQQGSRWTL; listed as Homo sapiens) [compound 202],“+++” (≥50 = +++)
19,369 (GLFPEHLIDV; listed as Homo sapiens) [compound 369],“+++” (≥50 = +++)

row,Substance,"Peptide exchange (MHC class I binding score, peptide exchange yield)"
1,622 (RLLGEEVVRVLQA; listed as Homo sapiens) [compound 622],“+++” (≥50 = +++)
2,370 (SLLQDLVSV; listed as Homo sapiens) [compound 370],“+++” (≥50 = +++)
3,159 (GLVGNPLPSV; listed as Homo sapiens) [compound 159],“++++” (≥75% = ++++)
4,349 (SLTEYLQNV; listed as Homo sapiens) [compound 349],“++++” (≥75% = ++++)
5,178 (ALTEIAFVV; listed as Homo sapiens) [compound 178],“++++” (≥75% = ++++)
6,436 (HLAEVSAEV; listed as Homo sapiens) [compound 436],“+++” (≥50 = +++)
7,77 (ILVEADGAWVV; listed as Homo sapiens) [compound 77],“++++” (≥75% = ++++)
8,527 (FLLEPGNLEV; listed as Homo sapiens) [compound 527],“++++” (≥75% = ++++)
9,287 (FLNEFFLNV; listed as Homo sapiens) [compound 287],“+++” (≥50 = +++)
10,35 (KINDTIYEV; listed as Homo sapiens) [compound 35],“+++” (≥50 = +++)
11,24 (SLSDGLEEV; listed as Homo sapiens) [compound 24],“++” (≥20% = ++)
12,358 (ALDEYTSEL; listed as Homo sapiens) [compound 358],“++++” (≥75% = ++++)
13,447 (QLVPALAKV; listed as Homo sapiens) [compound 447],“++” (≥20% = ++)
14,426 (RLADKSVLV; listed as Homo sapiens) [compound 426],“+++” (≥50 = +++)
15,381 (FIDEAYVEV; listed as Homo sapiens) [compound 381],“++” (≥20% = ++)
16,562 (YLEELPEKLKL; listed as Homo sapiens) [compound 562],“+++” (≥50 = +++)
17,30 (LILDWVPYI; listed as Homo sapiens) [compound 30],“+++” (≥50 = +++)
18,100 (YLLSTNAQL; listed as Homo sapiens) [compound 100],“++++” (≥75% = ++++)
